Measured values as given in the supplement of paper PMC9170038.

System: MS2 coat protein
Assay: apparent KD of MS2 coat protein; designed switch direction (-1 OFF switch, 1 ON switch): 1; higher = weaker reporter binding
Procedure, shortened: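 Designed RNA switches with common flanks were transcribed on Illumina chips by stalled E. coli RNA polymerase and titrated with SNAP-549-labelled MS2 coat protein, from 0.7 or 1.5 nM doubling to 3 µM, in Tris-HCl pH 7.5 buffer with KCl, MgCl2, BSA, DTT, tRNA and Tween-20. Steps lasted 0.8–1.5 h (lowest) to 10–20 min (highest). Titrations ran without input, with 200 uM small-molecule ligand, or with an oligonucleotide input. Normalised cluster fluorescence was curve-fitted, and apparent KD is the per-design median over clusters.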

[1] = input ligand: microRNA oligo, concentration not stated
[2] = Eterna round: R95, input ligand: FMN 200 uM
[3] = Eterna round: R95, input ligand: microRNA oligo, concentration not stated
[4] = Eterna round: R95, input ligand: none

Sequence	apparent KD of MS2 coat protein (input ligand: FMN 200 uM) [nM]	apparent KD of MS2 coat protein [1] [nM]	apparent KD of MS2 coat protein (input ligand: none) [nM]	apparent KD of MS2 coat protein [2] [nM]	apparent KD of MS2 coat protein [3] [nM]	apparent KD of MS2 coat protein [4] [nM]
GUGAAGAAUUAAGGAUAUCGAGUCAAGAUGUUAAACAUGAGGAUCACCCAUGUGGGUUGCGGUAUCGAGAAGGUAAAUUACAGG [salish99_SSNG2_r04_502] (Eterna round: R96, puzzle: Same State NG 2)	25.9	21.1	31.7	–	–	–
GUGAAGAAUUAAGGAUAUUGAAUACAUAUGUUUAACAUGAGGAUCACCCAUGUGGGUUGCGGUAUCGAGAAGGUAAAUUACUAG [salish99_SSNG2_r04_031] (Eterna round: R96, puzzle: Same State NG 2)	95.5	89.9	118	–	–	–
GUGCAACCGUGUGAGGAUAUCGGUGAAUAGACAUGAGGAUCACCCAUGUCCGAAGCUCGGUUCUCCGAGAAGGCGCACAGUUGCA [Same State 2 - Mod of Erisin v.5] (puzzle: Same State 2)	–	–	–	42.8	41.5	52.4
GUGGAGAAUUAAGGAUAUCGAGUCAAGAUGUUAAACAUGAGGAUCACCCAUGUGGGUUGCGGUAUCGAGAAGGUAAUUUACGGG [salish99_SSNG2_r04_505] (Eterna round: R96, puzzle: Same State NG 2)	22.4	21.3	36.8	–	–	–
GUGGUCAGACAUGAGGAUCACCCAUGUGGAAUAAAUAAGGAAAAGGAUAUCGAAUAUAGGAUAUACGAGAAGGUUUGGUUGGUG (Eterna round: R96, puzzle: Same State NG 3)	–	73.6	–	–	–	–
GUGGUCAGACAUGAGGAUCACCCAUGUGGAAUAAAUAAGGAAAAGGAUAUGGAAUAUAGGAUAUACCAGAAGGUUUGGUUGGUG (Eterna round: R96, puzzle: Same State NG 3)	–	83	–	–	–	–
GUGGUCAGACAUGAGGAUCACCCAUGUGGAAUAAAUAAGGACAAGGAUAUGGAAUAUAGGAUAUACCAGAAGGUGUGGUUGGUG (Eterna round: R96, puzzle: Same State NG 3)	–	67.5	–	–	–	–
GUGGUCAGACAUGAGGAUCACCCAUGUGGAAUAAAUAAGGAGAAGGAUAUGGAAUAUAGGAUAUACCAGAAGGUUUGGUUGGUG (Eterna round: R96, puzzle: Same State NG 3)	–	90.5	–	–	–	–
GUGGUCAGACAUGAGGAUCACCCAUGUGGAAUAAAUAAGGGACAGGAUAUGGAAUAUAGGAUAUACCAGAAGGGUUGGUUGGUG (Eterna round: R96, puzzle: Same State NG 3)	86.2	68.7	82	–	–	–
GUGGUCAGACAUGAGGAUCACCCAUGUGGAAUAAAUAAGGGUCAGGAUAUGGAAUAUAGGAUAUACCAGAAGGGAUGGUUGGUG (Eterna round: R96, puzzle: Same State NG 3)	134	70.2	92.8	–	–	–
GUGGUCUGACAUGAGGAUCACCCAUGUGGAAUAAAUAAGGGUUAGGAUAUCUUGAGGAUCACCCAAGAGAAGGGAUGGUUGGUG (Eterna round: R96, puzzle: Same State NG 3)	125	90.7	124	–	–	–
GUGGUCUGACAUGAGGAUCACCCAUGUGGAAUAAAUACGGGUUAGGAUAUCUUGAGGAUCACCCAAGAGAAGGGAUCGAUUGUU (Eterna round: R96, puzzle: Same State NG 3)	–	36.4	–	–	–	–
GUGGUGGGUUGAGGAUAUUGGUUGUUGUUGUUUUACAUGAGGAUCACCCAUGUGGGUUGUGGUUUUGAGAAGGUUGGUUGCUGG [salish99_SSNG2_r04_048] (Eterna round: R96, puzzle: Same State NG 2)	262	194	185	–	–	–
GUGGUGUAGAUACAGGAUAUGUUGCUCGUAACAUGAGGAUCACCCAUGUAUCUAUGAGAUAAAAUGCAGAAGGGUGCACACCACU [Mat - Same State 2 - Mod of UCT - D75] (puzzle: Same State 2)	–	–	–	–	245	–
GUGGUGUAGAUACAGGAUAUGUUGCUCGUAACAUGAGGAUCACCCAUGUAUGUAUGAGAAUGAAUGCAGAAGGGUGCACACCACG [Mat - Same State 2 - Mod of UCT - D77] (puzzle: Same State 2)	–	–	–	13.8	106	159
GUUACAUGAGGAUCACCCAUGUAAGUGUGGGAGAAAGUGACUUAGGAUAUCUAAUAUUUAAAUUAAGAGAAGGAAGAUUGUUGU [JMF's solution 4] (Eterna round: R96, puzzle: Same State NG 3)	86.8	64.3	81.6	–	–	–
GUUACAUGAGGAUCACCCAUGUAUGUGUGGGAGUAAGUGUCUUAGGAUAUCUAGUAUUUAGUUUAAGAGAAGGAAGAUUGUUGU [JMF's solution 61] (Eterna round: R96, puzzle: Same State NG 3)	127	90	88.2	–	–	–
GUUACAUGAGGAUCACCCAUGUAUGUGUGGGAGUAAGUGUCUUAGGAUAUCUAUGAGUUAAUUUAAGAGAAGGAAGAUUGUUGU [JMF's solution 74] (Eterna round: R96, puzzle: Same State NG 3)	97.2	63.4	77.5	–	–	–
GUUACAUGAGGAUCACCCAUGUAUGUGUGGGAGUAAGUGUCUUAGGAUAUCUAUGAUUUAAUUUCAGAGAAGGAAGAUUGUUGU [JMF's solution 88] (Eterna round: R96, puzzle: Same State NG 3)	119	68	109	–	–	–
GUUACAUGAGGAUCACCCAUGUAUGUGUGGGAGUAAGUGUCUUAGGAUAUCUGUUAUUUAAUUUGAGAGAAGGAAGAUUGUUGU [JMF's solution 47] (Eterna round: R96, puzzle: Same State NG 3)	134	71.7	89.1	–	–	–
GUUACAUGAGGAUCACCCAUGUAUGUGUGGGAGUAAGUGUCUUAGGAUAUCUGUUAUUUGAUUUAAGAGAAGGAAGAUUGUUGU [JMF's solution 40] (Eterna round: R96, puzzle: Same State NG 3)	123	78.4	92.8	–	–	–
GUUAUACAUGAGGAUCACCCAUGUCAAUGUAGUCGAGGAUAUGGGCAGCUAUGAGGCGUACUAGAAGGCGAGGAGU [JL-ss1-3.15 ViennaUCT mod] (puzzle: Same State 1)	–	–	–	90.7	90.5	134
UAAAAGAAGUUAGGAUAUGGUGAAGUACUGUGGCCAGAAGGGACGACUAACCGAGAAAGACAUGAGGAUCACCCAUGUCCACAG [Eternabot solution 20] (Eterna round: R96, puzzle: Same State NG 1)	86.5	57	74.5	–	–	–
UAAAUAAUGAUAGGAUAUACAUGAGGAAUCCUCGUAGAAGGAUCAUGACAUGAGGAUCACCCAUGUAACGCUCGAAAGAGCGUA [Mat - Same State NG 1 - JL mod - D44] (Eterna round: R96, puzzle: Same State NG 1)	485	265	219	–	–	–
